According to the Human Domainome abundance scans (Beltran et al. 2025):
± gives the uncertainty stated by the source.

B1: Dynamin-binding protein, residues 146 to 206; numbered along this chain, Q6XZF7 (parent)
chain: SMGQARALMGLSAQLDEELDFREGDVITIIGVPEPGWFEGELEGRRGIFPEGFVELLGPLR
B2: Nanos homolog 2, residues 63 to 115; numbered along this chain, P60321 (parent)
chain: CNFCKHNGESRHVYSSHQLKTPDGVVVCPILRHYVCPVCGATGDQAHTLKYCP

Variants of: B1
Experiment: abundance fitness (aPCA) (normalised: wild type 0, dead -1); higher = more abundant; growth selection in yeast, the domain comes from the species named
Details: Homo sapiens

| Variant | abundance fitness |
| --- | --- |
| P33V | -0.435 ± 0.17 |
| P33L | -0.615 ± 0.19 |
| P33C | -0.792 ± 0.18 |
| P33T | -0.386 ± 0.16 |
| P33H | -0.27 ± 0.11 |
| P33I | -0.494 ± 0.15 |
| P33N | -1.07 ± 0.24 |
| R45W | -0.958 ± 0.25 |
| R45G | -0.961 ± 0.27 |
| I29Q | -0.082 ± 0.25 |
| I29N | -0.461 ± 0.12 |
| I29Y | -0.997 ± 0.27 |
| I29A | -0.665 ± 0.16 |
| R46Y | -0.698 ± 0.36 |
| R46C | -0.303 ± 0.059 |
| R46Q | -0.571 ± 0.3 |
| F49W | -1.1 ± 0.24 |
| F49K | -0.655 ± 0.21 |
| I48P | -0.651 ± 0.12 |
| I48A | -0.777 ± 0.29 |
| E17C | 0.07 ± 0.042 |
| E17T | -0.101 ± 0.053 |
| E55K | -0.253 ± 0.17 |

| Variant | abundance fitness |
| --- | --- |
| G44Q | -0.683 ± 0.32 |
| G44V | -0.884 ± 0.2 |
| F38Q | -1.12 ± 0.29 |
| F38P | -0.994 ± 0.16 |
| F38W | -0.667 ± 0.11 |
| A7Y | -0.93 ± 0.12 |
| A7K | -0.672 ± 0.21 |
| A7N | -0.781 ± 0.11 |
| A7E | -0.989 ± 0.33 |
| A7V | -0.836 ± 0.24 |
| G31P | -0.121 ± 0.15 |
| G31T | -0.717 ± 0.32 |
| L11V | -0.402 ± 0.081 |
| P35S | -0.292 ± 0.068 |
| P35V | -0.202 ± 0.066 |
| P35M | -0.473 ± 0.16 |
| P35N | -0.471 ± 0.11 |
| P35C | -0.363 ± 0.09 |
| P35I | -0.642 ± 0.13 |
| P35E | -0.018 ± 0.13 |
| P35A | -0.116 ± 0.062 |
| P35Q | -0.203 ± 0.13 |
| P59M | -0.386 ± 0.34 |

Variants of: B2
Experiment: as above
Details: Homo sapiens

| Variant | abundance fitness |
| --- | --- |
| L49A | 0.081 ± 0.087 |
| L49Q | 0.347 ± 0.16 |
| L49N | -0.013 ± 0.14 |
| L49V | 0.104 ± 0.067 |
| L49S | -0.071 ± 0.097 |
| L49P | 0.026 ± 0.12 |
| L49Y | 0.057 ± 0.15 |
| L49W | -0.021 ± 0.13 |
| L49C | -0.368 ± 0.12 |
| L49H | 0.169 ± 0.18 |
| L49T | 0.016 ± 0.11 |
| L49R | 0.185 ± 0.065 |
| L49G | -0.05 ± 0.06 |
| L49E | -0.095 ± 0.11 |
| L49F | -0.076 ± 0.083 |
| L49D | -0.046 ± 0.097 |
| L49M | 0.148 ± 0.13 |
| L49I | 0.251 ± 0.16 |
| T48M | -0.12 ± 0.11 |
| T48Q | -0.031 ± 0.11 |
| T48D | -0.347 ± 0.18 |
| T48K | 0.052 ± 0.12 |
| T48C | -0.158 ± 0.097 |
| T48V | -0.045 ± 0.079 |
| T48L | -0.224 ± 0.088 |

| Variant | abundance fitness |
| --- | --- |
| T48A | -0.136 ± 0.077 |
| T48F | -0.326 ± 0.073 |
| T48R | -0.247 ± 0.054 |
| T48G | -0.226 ± 0.056 |
| T48I | -0.417 ± 0.22 |
| T48S | -0.19 ± 0.077 |
| T48W | -0.284 ± 0.077 |
| T48H | -0.363 ± 0.18 |
| T48E | 0.091 ± 0.093 |
| C52Y | -0.497 ± 0.13 |
| C52A | -0.777 ± 0.2 |
| C52G | -0.732 ± 0.09 |
| C52D | -0.505 ± 0.18 |
| C52P | -0.249 ± 0.39 |
| C52R | -0.506 ± 0.085 |
| C52M | -0.788 ± 0.26 |
| C52W | -0.824 ± 0.12 |
| C52V | -0.721 ± 0.082 |
| C52E | -0.64 ± 0.34 |
| C52Q | -0.574 ± 0.19 |
| C52F | -0.789 ± 0.22 |
| C52S | -0.432 ± 0.12 |
| C52I | -0.731 ± 0.49 |
| C52K | -0.488 ± 0.1 |
| C52H | -0.181 ± 0.078 |

| Variant | abundance fitness |
| --- | --- |
| Q45Y | -0.168 ± 0.1 |
| H47M | -0.647 ± 0.12 |
| H47K | -0.616 ± 0.2 |
| H47W | -0.781 ± 0.083 |
| H47R | -0.443 ± 0.12 |
| H47D | -0.463 ± 0.13 |
| H47N | -0.591 ± 0.1 |
| H47I | -0.981 ± 0.17 |
| H47Q | -0.739 ± 0.34 |
| H47Y | -0.621 ± 0.23 |
| H47A | -0.431 ± 0.11 |
| H47V | -0.628 ± 0.064 |
| H47G | -0.643 ± 0.067 |
| H47T | -0.695 ± 0.24 |
| H47P | -0.607 ± 0.19 |
| H47L | -0.735 ± 0.11 |
| H47S | -1.01 ± 0.29 |
| Y51I | -0.34 ± 0.17 |
| Y51G | -0.193 ± 0.073 |
| Y51R | -0.258 ± 0.05 |
| Y51D | -0.381 ± 0.15 |
| Y51V | -0.071 ± 0.067 |
| Y51F | 0.097 ± 0.12 |
| Y51E | -0.368 ± 0.15 |
| Y51T | -0.097 ± 0.12 |

| Variant | abundance fitness |
| --- | --- |
| Y51N | 0.075 ± 0.13 |
| Y51M | -0.203 ± 0.12 |
| Y51S | -0.104 ± 0.085 |
| Y51L | -0.137 ± 0.077 |
| Y51W | -0.237 ± 0.098 |
| Y51Q | -0.163 ± 0.11 |
| Y51K | 0.024 ± 0.12 |
| Y51P | -0.287 ± 0.074 |
| Y51C | -0.21 ± 0.11 |
| A46D | -0.426 ± 0.23 |
| A46Y | -0.47 ± 0.12 |
| A46C | -0.816 ± 0.25 |
| A46E | -0.202 ± 0.082 |
| A46I | -0.308 ± 0.17 |
| A46V | -0.192 ± 0.1 |
| A46W | -0.77 ± 0.22 |
| A46K | -0.349 ± 0.094 |
| A46R | -0.322 ± 0.11 |
| A46S | -0.241 ± 0.13 |
| A46P | -0.403 ± 0.13 |
| A46M | -0.6 ± 0.15 |
| A46N | -0.694 ± 0.4 |
| A46L | -0.649 ± 0.11 |
| A46G | -0.133 ± 0.068 |
| A46H | -0.124 ± 0.28 |

| Variant | abundance fitness |
| --- | --- |
| A46Q | -0.587 ± 0.12 |
| P53S | -0.439 ± 0.2 |
| P53G | -0.359 ± 0.16 |
| K50D | -0.484 ± 0.22 |
| K50F | -0.418 ± 0.17 |
| K50P | 0.145 ± 0.13 |
| K50Q | -0.225 ± 0.11 |
| K50S | -0.179 ± 0.086 |
| K50C | -0.42 ± 0.17 |
| K50A | -0.284 ± 0.09 |
| K50Y | -0.318 ± 0.3 |
| K50L | -0.379 ± 0.099 |
| K50M | -0.063 ± 0.16 |
| K50H | -0.249 ± 0.23 |
| K50E | -0.185 ± 0.11 |
| K50G | -0.298 ± 0.063 |
| K50T | -0.117 ± 0.064 |
| K50V | -0.22 ± 0.075 |
| K50N | -0.1 ± 0.17 |
| K50I | -0.809 ± 0.3 |
| K50W | -0.226 ± 0.12 |
